Experimental data reported in patent US20130011909A1, “METHODS AND COMPOSITION TO ENHANCE PRODUCTION OF FULLY FUNCTIONAL P-GLYCOPROTEIN IN PICHIA PASTORIS” (TEXAS TECH UNIVERSITY SYSTEM, priority 2011, published 2013).

Key:
[1] = tested on: S. cerevisiae strain JPY201; experiment: Drug-resistant growth of Pgp transformants (FK506, valinomycin, doxorubicin); assay type: cell-based
Experimental: (§1) FK506 resistance and mating assays were as previously described with the following modifications. To measure FK506-resistant growth, overnight cultures were grown in uracil-deficient medium, diluted to an (OD600 of 0.05, seeded into sterile 96 well plates in triplicate and grown in YPD medium at 30° C. in the absence or presence of FK506, valinomycin [12, 33], or doxorubicin. OD600 was measured at 2 hour intervals for 30 hours in a microplate reader (Benchmark Plus, BioRad) after vigorous mixing. Drugs were dissolved in dimethylsulfoxide and diluted into the plate medium such that the final concentration of solvent was ≦1%. For mating assays, mass populations were diluted to OD600 of 0.6, and 0.75 ml were spotted with 0.25 ml of α-type tester strain DC17 (OD600 of 1.2) onto a 22 mm 0.45 μm HA filter (Millipore, cat no SAIJ791H5), placed on a YPD plate and incubated for 4 hours, then plated in duplicate on minimal and uracil-deficient medium as described. Mating frequency was calculated as the ratio of transformed cells forming diploid colonies on selective medium to the total number of cells introduced in the assay. Statistical analysis of the functional assays was done with the SigmaPlot 11 software using One Way ANOV A with the pairwise multiple comparison Tukey test.

[2] = target: T1, Opti-Pgp (Mus musculus, UniProt P21447, N83Q/N87Q/N90Q); experiment: ATPase assay of purified, lipid-activated Pgp (coupled ATP-regenerating assay); assay type: biochemical
T1 construct: made in house; host or cells: Pichia pastoris KM71H
T1 sequence (P21447 whole entry N83Q/N87Q/N90Q): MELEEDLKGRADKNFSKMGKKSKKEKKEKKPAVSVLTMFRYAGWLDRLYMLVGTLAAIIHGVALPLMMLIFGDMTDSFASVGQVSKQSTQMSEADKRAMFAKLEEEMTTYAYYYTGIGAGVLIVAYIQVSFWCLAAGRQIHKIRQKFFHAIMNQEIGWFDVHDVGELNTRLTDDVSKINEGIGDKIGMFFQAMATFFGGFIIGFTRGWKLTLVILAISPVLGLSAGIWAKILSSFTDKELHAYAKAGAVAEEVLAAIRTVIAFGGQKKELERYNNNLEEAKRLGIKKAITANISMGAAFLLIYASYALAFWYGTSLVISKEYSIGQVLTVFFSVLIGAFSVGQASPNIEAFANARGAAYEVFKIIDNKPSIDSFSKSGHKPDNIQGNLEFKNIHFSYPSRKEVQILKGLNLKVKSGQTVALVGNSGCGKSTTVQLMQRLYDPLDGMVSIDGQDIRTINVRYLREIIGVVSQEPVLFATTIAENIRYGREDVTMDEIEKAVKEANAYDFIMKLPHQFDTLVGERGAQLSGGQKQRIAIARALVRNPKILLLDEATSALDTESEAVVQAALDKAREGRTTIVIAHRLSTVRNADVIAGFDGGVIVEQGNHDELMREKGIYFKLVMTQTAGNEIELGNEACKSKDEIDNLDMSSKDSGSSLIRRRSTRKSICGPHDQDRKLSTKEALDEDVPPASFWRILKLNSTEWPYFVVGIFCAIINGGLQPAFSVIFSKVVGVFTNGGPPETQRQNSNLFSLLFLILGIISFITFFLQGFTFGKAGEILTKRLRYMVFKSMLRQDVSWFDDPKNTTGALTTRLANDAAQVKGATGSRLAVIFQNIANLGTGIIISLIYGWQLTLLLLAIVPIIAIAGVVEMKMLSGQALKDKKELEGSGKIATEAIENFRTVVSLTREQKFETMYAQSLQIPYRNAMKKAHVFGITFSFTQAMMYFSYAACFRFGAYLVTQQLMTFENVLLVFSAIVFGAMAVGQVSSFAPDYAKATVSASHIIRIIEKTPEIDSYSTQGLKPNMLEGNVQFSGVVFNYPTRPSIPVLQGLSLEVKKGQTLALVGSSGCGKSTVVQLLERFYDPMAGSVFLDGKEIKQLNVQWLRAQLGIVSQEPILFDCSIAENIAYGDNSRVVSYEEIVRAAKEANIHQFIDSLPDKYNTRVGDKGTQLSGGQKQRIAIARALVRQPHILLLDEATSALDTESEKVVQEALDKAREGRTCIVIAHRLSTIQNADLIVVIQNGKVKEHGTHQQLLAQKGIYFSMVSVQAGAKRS
Experimental: (§2) Purified Pgp in 0.1% DDM was mixed with 10 mM DTT on ice for 5 min, then activated with 1% E. coli polar lipids for 15 minutes at room temperature followed by 30 s bath sonication as described. ATPase activity was measured at 37° C. in a coupled assay utilizing an ATP-regenerating system. For each well of a 96-well plate, 10 μl (5 μg) of activated wild type (WT) Pgp or Opti-Pgp was added to 200 μl of assay medium containing 10 mM ATP, 12 mM MgSO4, 3 mM phosphoenolpyruvate, 0.3 mM NADH, 0.5 mg/ml of lactate dehydrogenase, 0.5 mg/ml of pyruvate kinase, 0.1 mM EGTA and 40 mM Tris-HCl, pH 7.4. Verapamil was added from stock solution in water; cyclosporine A was added from concentrated stock in DMSO such that the final DMSO concentration was 2%; control samples contained 2% DMSO. […] ATPase activity was calculated as described previously and plotted with SigmaPlot 10 (Systat Software, Inc.).

[3] = tested on: S. cerevisiae strain JPY201; experiment: Mating assay (a-factor export, diploid formation); assay type: cell-based; details: sterile ste6Δ strain JPY201, tester DC17
Experimental: as §1

[4] = Differential scanning calorimetry, thermal unfolding; assay type: physicochemical
Experimental: Calorimetry was routinely carried out in 20 mM HEPES, pH 7.6, 50 mM NaCl, 10% glycerol, 0.1% DDM and 5.5 mM DTT in 0.13 mL cells at a heating rate of 2 K/minutes with the VP-Capillary DSC System (MicroCal Inc., GE Healthcare). An external pressure of 2.0 atm was maintained to prevent possible degassing of the solutions on heating. Thermal unfolding was irreversible, as determined by sample cooling and reheating. Heat capacity curves were corrected for instrumental baseline obtained by buffer scans. Separated DSC scans were conducted for buffer containing 1% lipids and no transition was detected in the temperature range of thermal unfolding for the proteins in presence of lipids. DSC data were analyzed with the MicroCal Origin software to obtain the unfolding temperature (Tm) and the total unfolding enthalpy (ΔHcal).

[5] = target: T2, WT-Pgp (Mus musculus, UniProt P21447, N83Q/N87Q/N90Q); experiment: ATPase assay of purified, lipid-activated Pgp (coupled ATP-regenerating assay); assay type: biochemical; details: 150 μM verapamil, 1% E. coli lipids, 37° C., n > 30
T2 construct: Arrows indicate the position of the full-length proteins (Pgp); made in house; host or cells: Pichia pastoris KM71H
T2 sequence (P21447 whole entry N83Q/N87Q/N90Q): as above
Experimental: as §2

[6] = target: gene-optimized P-glycoprotein (mouse opti-MDR3 gene product) with C-terminal His6-tag (mouse) (UniProt P21447); experiment: cell-based or functional assay
[7] = target: wild-type P-glycoprotein (mouse MDR3 gene product) with C-terminal His6-tag (mouse) (UniProt P21447); experiment: cell-based or functional assay

Opti-Pgp: P-glycoprotein (mouse MDR3) expressed from codon-optimized opti-MDR3 gene, primary sequence identical to wild-type, C-terminal His6 tag
Growth resistance compared with WT-Pgp transformants ([1]; FK506 25 μg/ml): no difference
Growth resistance compared with WT-Pgp transformants ([1]; FK506 50 or 75 μg/ml): grew significantly faster
Growth resistance compared with WT-Pgp transformants ([1]; doxorubicin 45 μM): grew significantly faster
Growth resistance compared with WT-Pgp transformants ([1]; doxorubicin 15 and 30 μM): no significant difference
Time after inoculation to enter log-phase growth ([1]; in the presence of FK506): approximately 22 hours
Time to reach stationary phase ([1]; in the presence of FK506): approximately 28 hours
Growth compared with WT-Pgp transformants ([1]; valinomycin 80 μg/ml, data not shown): as good as or better than
verapamil-stimulated ATPase activity ([2]; 0.13% lipid): 40%
verapamil-stimulated ATPase activity ([2]; 0.52% lipid): 80%
ATP hydrolysis rate enhancement over wild-type Pgp ([2]; Opti-Pgp versus WT-Pgp): 1.2 fold
verapamil-stimulated ATPase activity ([2]; absence of lipids): 11%
Maximal ATPase activity ([2]; purified Opti-Pgp, 150 μM verapamil, 1% E. coli lipids, 37° C., n > 30): 2.1 ± 0.28 µmol/min/mg
Maximum turnover number ([2]; purified Opti-Pgp, as printed in summary): 2.1 ± 0.28 µmol/min/mg
Mating frequency relative to WT-Pgp controls [3]: about 1.5 fold
Tm (intermediate) ([4]; 0.13% lipid): 48 °C
Unfolding temperature T1 ([4]; 1% lipid): 49.3 ± 1.0 °C
Unfolding temperature T2 ([4]; 1% lipid): 58.7 ± 0.5 °C
ΔHcal ([4]; 1% lipid): 567 ± 33 kcal/mol
Unfolding temperature T1 ([4]; no added lipids, 0.1% DDM): 42.7 ± 1.7 °C
ΔHcal ([4]; no added lipids, 0.1% DDM): 264 ± 67 kcal/mol

WT-Pgp: wild-type mouse MDR3 P-glycoprotein expressed from the native gene, comparison protein
Maximal ATPase activity [5]: 1.8 ± 0.24 µmol/min/mg
Unfolding temperature T1 ([4]; 1% lipid): 50.4 ± 0.9 °C
Unfolding temperature T2 ([4]; 1% lipid): 57.8 ± 0.1 °C
ΔHcal ([4]; 1% lipid): 518 ± 4.2 kcal/mol
Unfolding temperature T1 ([4]; no added lipids, 0.1% DDM): 43.0 ± 1.6 °C
ΔHcal ([4]; no added lipids, 0.1% DDM): 264 ± 87 kcal/mol

cyclosporine A (peptide)
Half-maximal inhibition by cyclosporine A (µM) of verapamil-stimulated ATPase activity [6]: 1.1 µM
Half-maximal inhibition by cyclosporine A (µM) of verapamil-stimulated ATPase activity [7]: 0.98 µM
